# Measured values as given in patent US10234390.
# B1: Sortase A enzyme (protein)
# chain: QAKPQIPKDKSKVAGYIEIPDADIKEPVYPGPATPEQLNRGVSFAEENESLDDQNISIAGHTFIDRPNYQFTNLKAAKKGSMVYFKVGNETRKYKMTSIRDVKPTDVGVLDEQKGKDKQLTLITCDDYNEKTGVWEKRKIFVATEVK
# B2: Recombinant human MMP-1 (R&D Systems), activated with APMA (protein)
# chain: FVLTEGNPRWEQTHLTYRIENYTPDLPRADVDHAIEKAFQLWSNVTPLTFTKVSEGQADIMISFVRGDHRDNSPFDGPGGNLAHAFQPGPGIGGDAHFDEDERWTNNFREYNLHRVAAHELGHSLGLSHSTDIGALMYPSYTFSGDVQLAQDDIDGIQAIYGRSQNPVQPIGPQTPKACDSKLTFDAITTIRGEVMFFKDRFYMRTNPFYPEVELNFISVFWPQLPNGLEAAYEFADRDEVRFFKGNKYWAVQGQNVLHGYPKDIYSSFGFPRTVKHIDAALSEENTGKTYFFVANKYWRYDEYKRSMDPGYPKMIAHDFPGIGHKVDAVFMKDGFFYFFHGTRQYKFDPKTKRILTLQKANSWFNCRKN
# Legend:
# [1] = test system: T1, fluorogenic MMP peptide substrate [Dabcyl-Gaba-Pro-Gln-Gly-Leu-Glu(EDANS)-Ala-Lys-NH2]
# T1 sequence: XXPQGLXAK
# [2] = target: T2, Sortase A substrate Dnp-LPETG-(K-FITC)-NH2
# T2 chain: LPETGK
# [3] = target: T3, fluorogenic MMP peptide substrate [Dabcyl-Gaba-Pro-Gln-Gly-Leu-Glu(EDANS)-Ala-Lys-NH2] (not fully specified)
# T3 chain: XXPQGLXAK
molecule,measurement,setting,value
MMP-9,EDANS fluorescence intensity,[1],The fluorescence intensity of EDANS cleaved by MMP-9 bound with MNP-MMP9Ab
B1,"FITC fluorescence emission (1 µg/mL Sortase A, 30 min)",[2],the emission of FITC after the Sortase A substrate cleaved by Sortase A enzyme
same,FITC fluorescence emission at different contact times,[2],the longer the interaction between Sortase A enzyme and Sortase A substrate the higher emission of the FITC detected ... only until 30 min contact time
same,"FITC fluorescence emission, S. aureus bacterial supernatant (1 h inoculation)",[2],about 47.26 a.u.
same,"FITC fluorescence intensity, 1×10^-4 µg/mL Sortase A in buffer solution",[2],100.2±22.7 a.u.
same,"FITC fluorescence intensity, wound fluid spiked with 1×10^-4 µg/mL Sortase A, 30 min",[2],about 82.34 a.u.
same,FITC fluorescence signal at different Sortase A concentrations,[2],this sensing platform still had an obvious signal down to fg/mL of Sortase A concentration
same,increase of FITC fluorescence intensity on spiking the bacterial supernatant with Sortase A enzyme,[2],increased the fluorescence intensity about 112.19 a.u.
B2,EDANS emission at 446.5 nm from peptide-functionalised pSiRM,[3],emission at 446.5 nm was observed
same,EDANS emission under confocal microscope (microcontact-printed peptide),[3],The lighter colour (blue) is the colour of EDANS emission confirming the cleavage of the MMP substrate
same,EDANS fluorescence intensity at different incubation times (1.2×10^-7 M MMP-1),[3],"After 5 min of incubation, a significant fluorescence emission indicating the presence of MMP-1 was already detectable ... then plateaued at 15 min incubation time"
same,limit of detection (EDANS fluorescence after 15 min incubation),[3],the calculated LOD was 7.5×10^-19 M
same,shift of the resonance cavity dip (IRS),[3],A small blue shift (Δλ=0.5 nm) observed by IRS after incubation with MMP-1
